# Data from the supplement of paper PMC10567573.
# B1: CHCHD3 (parent)
# chain: YSGAYGASVSDEELKRRVAEELAL
# B2: VPS39 (parent)
# chain: TTLLKCYLHTNVALVAPLLRLENN
# Variants of: B1
# Experiment: protein stability index of a GFP-peptide fusion (GPS, HEK-293T) (PSI 1-6); higher = more stable
# Conditions: c terminus: a fixed tail appended
# 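Further: lentivirally expressed fusions sorted by FACS into six bins by GFP to DsRed ratio, PSI derived from sequencing read proportions per bin multiplied by bin number.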
row,Variant,protein stability index
1,V18S,2.42
2,V18P,2.58
3,V18T,2.39
4,V18E,2.59
5,V18A,2.42
6,V18W,2.35
7,V18N,2.73
8,V18Y,2.09
9,V18R,2.44
10,V18C,2.76
11,V18I,2.86
12,V18L,2.93
13,V18H,2.75
14,V18K,2.38
15,V18F,2.64
16,V18D,2.54
17,V18Q,1.72
18,V18M,2.09
19,K15Y,2.72
20,K15E,3.33
21,K15N,2.19
22,K15P,2.29
23,K15G,2.58
24,K15S,3.47
25,K15T,2.22

row,Variant,protein stability index
1,K15D,3.38
2,K15C,3.2
3,K15A,2.99
4,K15V,2.65
5,K15R,2.84
6,K15F,2.11
7,K15I,2.5
8,K15M,2.61
9,K15W,2.04
10,K15L,2.52
11,K15H,2.69
12,K15Q,2.83
13,E21M,3.14
14,E21P,3.47
15,E21C,3.9
16,E21L,2.87
17,E21N,2.9
18,E21H,2.44
19,E21A,2.94
20,E21Y,2.45
21,E21V,2.19
22,E21G,3.32
23,E21F,2.44
24,E21K,2.88
25,E21Q,3.05

row,Variant,protein stability index
1,E21W,2.62
2,E21T,2.33
3,E21R,2.89
4,E21S,3.57
5,E21D,2.45
6,E21I,2.12
7,A23L,2.72
8,A23C,3.08
9,A23D,2.76
10,A23H,2.71
11,A23F,2.97
12,A23Y,2.7
13,A23T,3.13
14,A23M,2.65
15,A23G,3.02
16,A23K,2.71
17,A23V,2.55
18,A23E,2.86
19,A23W,2.87
20,A23I,2.52
21,A23R,2.26
22,A23Q,2.58
23,A23N,2.97
24,A23S,2.19
25,A23P,3.31

row,Variant,protein stability index
1,R16S,1.95
2,R16V,2.17
3,R16T,3.04
4,R16D,3.66
5,R16Q,2.64
6,R16G,2.92
7,R16W,2.54
8,R16K,2.65
9,R16C,1.92
10,R16E,2.46
11,R16L,2.75
12,R16A,2.34
13,R16P,2.55
14,R16I,2.11
15,R16N,2.65
16,R16F,2.3
17,R16H,2.45
18,R16M,2.74
19,R16Y,2.19
20,E13S,2.26
21,E13R,2.26
22,E13T,2.66
23,E13Q,2.3
24,E13G,2.18
25,E13V,2.38

row,Variant,protein stability index
1,E13N,2.44
2,E13W,2.56
3,E13K,3.04
4,E13H,2.67
5,E13L,2.85
6,E13F,2.49
7,E13M,1.51
8,E13P,2.47
9,E13I,2.2
10,E13Y,1.76
11,L24S,2.31
12,L24F,1.77
13,L24Y,2.5
14,L24I,2.46
15,L24G,2.96
16,L24R,2.52
17,L24H,2.31
18,L24W,2.33
19,L24N,2.54
20,L24A,2.62
21,L24K,2.87
22,L24P,2.27
23,L24T,2.48
24,L24E,2.92
25,L24M,2.74

row,Variant,protein stability index
1,L24V,2.37
2,L24C,2.79
3,L24D,2.52
4,L24Q,2.63
5,L14T,3.12
6,L14N,2.47
7,L14P,2.24
8,L14W,2.34
9,L14M,2.19
10,L14K,2.94
11,L14S,2.31
12,L14G,3.46
13,L14I,2.41
14,L14E,3.48
15,L14C,2.77
16,L14A,1.78
17,L14H,2.79
18,L14D,3.3
19,L14V,2.63
20,L14Y,3.56
21,L14R,2.25
22,L14F,2.53
23,L22H,2.05
24,L22Q,2.77
25,L22K,2.19

row,Variant,protein stability index
1,L22N,3.21
2,L22C,2.57
3,L22V,3.58
4,L22Y,1.94
5,L22T,3.26
6,L22P,2.47
7,L22F,1.59
8,L22R,3.32
9,L22A,2.5
10,L22E,2.7
11,L22D,2.75
12,L22W,1.89
13,L22M,2.87
14,L22S,2.4
15,L22I,2.7
16,L22G,2.33
17,E20W,1.85
18,E20H,2.59
19,E20A,2.19
20,E20Y,2.27
21,E20N,2.15
22,E20M,2.16
23,E20I,2.4
24,E20K,2.9
25,E20L,2.22

row,Variant,protein stability index
1,E20R,2.49
2,E20Q,2.68
3,E20G,1.58
4,E20F,1.99
5,E20V,1.57
6,E20D,3.01
7,E20S,3.03
8,E20T,2.26
9,E20P,2.49
10,E20C,2.48
11,A19R,2.95
12,A19D,2.84
13,A19K,2.47
14,A19V,3.43
15,A19I,2.49
16,A19L,3.05
17,A19N,3.53
18,A19W,2.69
19,A19H,3.24
20,A19M,3.43
21,A19S,2.05
22,A19T,1.94
23,A19Y,2.27
24,A19Q,2.56
25,A19C,2.67

row,Variant,protein stability index
1,A19E,3.04
2,A19P,3.04
3,A19F,2.54
4,A19G,3.1
5,R17N,2.61
6,R17A,2.57
7,R17E,3.17
8,R17F,2.12
9,R17P,2.64
10,R17K,2.31
11,R17V,2.63
12,R17Q,2.77
13,R17S,2.52
14,R17M,1.94
15,R17W,2.38
16,R17L,2.76
17,R17I,2.4
18,R17G,2.36
19,R17C,2.06
20,R17Y,2.33
21,R17T,2.53
22,R17D,2.54
23,R17H,2.4

# Variants of: B2
# Experiment: as above
# Conditions: c terminus: a fixed tail appended
row,Variant,protein stability index
1,T1A,3.76
2,T1M,2.75
3,K5S,4.1
4,K5F,1.07
5,K5N,2.49
6,K5T,2.57
7,K5P,1.88
8,A16S,5.08
9,A16R,2.05
10,A16N,2.16
11,A16M,2.02
12,Y7P,1.7
13,Y7D,2.27
14,Y7S,3.15
15,Y7N,2.9
16,Y7R,1.76
17,H9N,3.08
18,H9T,3.1
19,H9F,2.82
20,L19D,2.11
21,L19E,2.02
22,L19T,2.11
23,L19W,2.61

row,Variant,protein stability index
1,L19H,1.7
2,L21K,1.74
3,L21F,3.04
4,L21D,1.59
5,L21G,1.6
6,L21I,2.16
7,L21S,1.63
8,L21C,3.59
9,V15P,3.16
10,V15I,2.17
11,V15D,1.31
12,V15W,2.17
13,V15N,2.07
14,V15T,2.11
15,V15H,2.17
16,N23A,2.22
17,N23T,2.32
18,N23H,2.29
19,N23L,2.85
20,N23W,1.88
21,N23E,2.49
22,L18E,1.55
23,L18P,2.27

row,Variant,protein stability index
1,A13P,2.2
2,A13R,1.57
3,A13W,3.55
4,A13V,3.55
5,C6K,2.11
6,C6I,1.15
7,C6L,3.27
8,C6T,2.56
9,C6P,2.19
10,C6A,1.25
11,C6N,1.91
12,L4Q,1.92
13,L4K,2.01
14,L4P,1.74
15,L4D,1.35
16,L4G,3.33
17,L4S,3.47
18,L4V,3.82
19,L14N,2.16
20,L14E,1.57
21,L14H,3.13
22,L14I,3.28
23,L14F,1.55

row,Variant,protein stability index
1,L14Q,1.68
2,L14P,1.9
3,E22C,1.92
4,E22I,1.99
5,E22D,2.71
6,E22W,1.4
7,E22S,2.82
8,E22V,1.69
9,E22A,1.66
10,E22R,2.64
11,L3D,2.22
12,L3Y,3.01
13,L3I,2.18
14,L3W,3.19
15,L3G,1.84
16,V12N,2.06
17,V12K,1.45
18,V12Q,1.95
19,T2Q,2.1
20,T2L,3.5
21,T10W,1.94
22,T10Y,2.73
23,P17E,4.79

row,Variant,protein stability index
1,P17M,1.17
2,R20V,2.63
3,R20I,3.11
4,R20T,3.38
5,L8W,2.17
6,L8Q,2.14
7,L8E,1.85
8,L8R,2.35
9,L8C,1.07
10,L8V,2.7
11,L8H,1.82
12,N24L,3.19
13,N24Q,3.12
14,N24K,2.08
15,N24H,3.11
16,N11K,2.86
17,N11Q,4.1
18,N11I,1.85
19,N11C,2.59
